In this test the target is activated human MMP13 (human, UniProt P45452 104-471). The experiment in a line: cell-based or functional assay.

Where a chain is given by its changes, count along the chain named.

B1: C010100280 (VHH)
VHH: EVQLVESGGGLVQPGGSLRLSCAASGFAFSAAYMSWVRQAPGKGLEWVSSISDDGSKTYYADSVKGRFTISRDNSKNTVYLQMNSLRPEDTAVYYCNTGYGATTTRPGRYWGQGTLVTVSS
Take B1: the “potency, human fluorogenic peptide assay” value amounted to 1.01 nM.

B2: C010100170 (VHH)
VHH: EVQLVESGGGLVQPGGSLRLSCAASGSIFSINAMGWYRQAPGKQRELVAAISSGGSTYYADSVKGRFTISRDNSKNTVYLQMNSLRPEDTAVYYCNAAVDASRGLPYELYYYWGQGTLVTVSS
For B2, the “potency, human fluorogenic peptide assay” value was found to be 0.608 nM.

B3: C010100689 (bispecific antibody)
chain: EVQLVESGGGLVQPGGSLRLSCAASGFAFSAAYMSWVRQAPGKGLEWVSSISDDGSKTYYADSVKGRFTISRDNSKNTVYLQMNSLRPEDTAVYYCNTGYGATTTRPGRYWGQGTLVTVSSGGGGSGGGGSGGGGSGGGGSGGGGSGGGGSGGGGSEVQLVESGGGLVQPGGSLRLSCAASGSTFIINVVRWYRRAPGKQRELVATISSGGNANYVDSVRGRFTISRDNSKNTVYLQMNSLRPEDTAVYYCNVPTTHYGGVYYGPYWGQGTLVTVSS
For the molecule B3, the “potency, human fluorogenic peptide assay” value stood at 1.91 nM.

B4: C010100700 (bispecific antibody)
chain: EVQLVESGGGLVQPGGSLRLSCAASGRTFSSYAMGWFRQAPGKEREFVAAISWSGGSTYYADSVKGRFTISRDNSKNTVYLQMNSLRPEDTAVYYCTAALAVYGPSRYRYGPVGEYQYWGQGTLVTVSSGGGGSGGGGSGGGGSGGGGSGGGGSGGGGSGGGGSEVQLVESGGGSVQPGGSLRLSCAASGSTFSRYSMNWYRQAPGKQREFVAGISVGRITNYAVSVRGRFTISRDNSEGTGYLQMNSLRPEDTAVYYCNAGGLQGYWGLGTLVTVSSGGGGSGGGGSGGGGSGGGGSGGGGSGGGGSGGGGSEVQLVESGGGLVQPGGSLRLSCAASGSTFIINVVRWYRRAPGKQRELVATISSGGNANYVDSVRGRFTISRDNSKNTVYLQMNSLRPEDTAVYYCNVPTTHYGGVYYGPYWGQGTLVTVSS
With B4, the “potency, human fluorogenic peptide assay” value is 0.0318 nM.

B5: C010100688 (bispecific antibody)
chain: EVQLVESGGGLVQPGGSLRLSCAASGSIFSINAMGWYRQAPGKQRELVAAISSGGSTYYADSVKGRFTISRDNSKNTVYLQMNSLRPEDTAVYYCNAAVDASRGLPYELYYYWGQGTLVTVSSGGGGSGGGGSGGGGSGGGGSGGGGSGGGGSGGGGSEVQLVESGGGLVQPGGSLRLSCAASGSTFIINVVRWYRRAPGKQRELVATISSGGNANYVDSVRGRFTISRDNSKNTVYLQMNSLRPEDTAVYYCNVPTTHYGGVYYGPYWGQGTLVTVSS
For B5, the “potency, human fluorogenic peptide assay” value amounted to 0.927 nM.

B6: C010100692 (bispecific antibody)
chain: EVQLVESGGGLVQPGGSLRLSCAASGFAFSAAYMSWVRQAPGKGLEWVSSISDDGSKTYYADSVKGRFTISRDNSKNTVYLQMNSLRPEDTAVYYCNTGYGATTTRPGRYWGQGTLVTVSSGGGGSGGGGSGGGGSGGGGSGGGGSGGGGSGGGGSEVQLVESGGGLVQPGGSLRLSCAASGRTFSSYTMGWFRQAPGKEREFVAAISWSGGRTYYADSVKGRFTISRDNSKNTVYLQMNSLRPEDTAVYYCAAYRRRRASSNRGLWDYWGQGTLVTVSS
In the case of B6, the “potency, human fluorogenic peptide assay” value came out at 0.828 nM.

B7: C010100687 (bispecific antibody)
chain: EVQLVESGGGLVQPGGSLRLSCAASGFTLAYYSIGWFRQAPGKEREGVSCISSGIDGSTYYADSVKGRFTISRDNAKNTMYLQMNNLKPEDTGVYYCAADPSHYYSEYDCGYYGMDYWGKGTLVTVSSGGGGSGGGGSGGGGSGGGGSGGGGSGGGGSGGGGSEVQLVESGGGLVQPGGSLRLSCAASGSTFIINVVRWYRRAPGKQRELVATISSGGNANYVDSVRGRFTISRDNSKNTVYLQMNSLRPEDTAVYYCNVPTTHYGGVYYGPYWGQGTLVTVSS
In the case of B7, the “potency, human fluorogenic peptide assay” value came to 1.57 nM.

B8: C010100080 (bispecific antibody)
chain: EVQLVESGGGLVQPGGSLRLSCAASGRTFSSYAMGWFRQAPGKEREFVAAISWSGGSTYYADSVKGRFTISRDNSKNTVYLQMNSLRPEDTAVYYCTAALAVYGPNRYRYGPVGEYNYWGQGTLVTVSSGGGGSGGGGSGGGGSGGGGSGGGGSGGGGSGGGGSEVQLVESGGGSVQAGGSLRLSCAASGSTFSRYSMNWYRQAPGKQREFVAGISVGRITNYAVSVRGRFTISRDNAEGTGYLQMNSLKPEDTAVYYCNAGGLQGYWGLGTLVTVSSGAADYKDHDGDYKDHDIDYKDDDDKGAAHHHHHH
Consider B8, for which the “potency, human fluorogenic peptide assay” value is 0.488 nM.

B9: C010100101 (VHH)
VHH: EVQLVESGGGLVQPGGSLRLSCAASGFTLAYYSIGWFRQAPGKEREGVSCISSGIDGSTYYADSVKGRFTISRDNAKNTMYLQMNNLKPEDTGVYYCAADPSHYYSEYDCGYYGMDYWGKGTLVTVSS
Take B9: the “potency, human fluorogenic peptide assay” value came to 3.92 nM.

B10: C010100691 (bispecific antibody)
chain: EVQLVESGGGLVQPGGSLRLSCAASGSIFSINAMGWYRQAPGKQRELVAAISSGGSTYYADSVKGRFTISRDNSKNTVYLQMNSLRPEDTAVYYCNAAVDASRGLPYELYYYWGQGTLVTVSSGGGGSGGGGSGGGGSGGGGSGGGGSGGGGSGGGGSEVQLVESGGGLVQPGGSLRLSCAASGRTFSSYTMGWFRQAPGKEREFVAAISWSGGRTYYADSVKGRFTISRDNSKNTVYLQMNSLRPEDTAVYYCAAYRRRRASSNRGLWDYWGQGTLVTVSS
Take B10: the “potency, human fluorogenic peptide assay” value is 0.484 nM.

B11: C010100726 (bispecific antibody)
chain: EVQLVESGGGLVQPGGSLRLSCAASGRTFSSYAMGWFRQAPGKEREFVAAISWSGGSTYYADSVKGRFTISRDNSKNTVYLQMNSLRPEDTAVYYCTAALAVYGPSRYRYGPVGEYQYWGQGTLVTVSSGGGGSGGGGSGGGGSGGGGSGGGGSGGGGSGGGGSEVQLVESGGGLVQPGGSLRLSCAASGSTFSRYSMNWYRQAPGKQREFVAGISVGRITNYAVSVKGRFTISRDNSKNTVYLQMNSLRPEDTAVYYCNAGGLQGYWGQGTLVTVSS
Take B11: the “potency, human fluorogenic peptide assay” value was 0.0671 nM.

B12: C010100727 (bispecific antibody)
chain: B11 chain with V242G
B12: the “potency, human fluorogenic peptide assay” value worked out at 0.134 nM.

B13: C010100696 (bispecific antibody)
chain: EVQLVESGGGLVQPGGSLRLSCAASGRTFSSYAMGWFRQAPGKEREFVAAISWSGGSTYYADSVKGRFTISRDNSKNTVYLQMNSLRPEDTAVYYCTAALAVYGPSRYRYGPVGEYQYWGQGTLVTVSSGGGGSGGGGSGGGGSGGGGSGGGGSGGGGSGGGGSEVQLVESGGGSVQPGGSLRLSCAASGSTFSRYSMNWYRQAPGKQREFVAGISVGRITNYAVSVRGRFTISRDNSEGTGYLQMNSLRPEDTAVYYCNAGGLQGYWGLGTLVTVSSGGGGSGGGGSGGGGSGGGGSGGGGSGGGGSGGGGSEVQLVESGGGLVQPGGSLRLSCAASGRTFSSYTMGWFRQAPGKEREFVAAISWSGGRTYYADSVKGRFTISRDNSKNTVYLQMNSLRPEDTAVYYCAAYRRRRASSNRGLWDYWGQGTLVTVSS
B13: the “potency, human fluorogenic peptide assay” value worked out at 0.107 nM.

The record behind these values is patent publication US12129308 (Merck KGaA, dated 2024).
